Source: paper PMC3115796 (The Journal of Cell Biology, 2011)
Each block holds one binder with its values, some of them ahead of it.

Columns and labels:
CLIPCG12 = target: T1, CLIPCG12 (human, UniProt P30622 48-300); test: ITC
T1 sequence: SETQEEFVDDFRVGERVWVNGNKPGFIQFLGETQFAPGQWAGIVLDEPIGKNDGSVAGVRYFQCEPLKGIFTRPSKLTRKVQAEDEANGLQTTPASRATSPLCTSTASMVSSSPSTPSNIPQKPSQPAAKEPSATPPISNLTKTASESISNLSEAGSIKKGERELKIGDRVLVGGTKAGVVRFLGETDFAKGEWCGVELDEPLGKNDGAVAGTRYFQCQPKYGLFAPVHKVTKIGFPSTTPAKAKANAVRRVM

BioGFP-SLAIN2 = BioGFP-SLAIN2 (human, UniProt Q9P270 1-581, biotin (substrate linker of the biotin ligase BirA, co-expressed)); test: pull-down
SEC-MALS = target: the molecule itself; test: SEC-MALS

stoichiometry N (CLIPCG12): 2
Binder: GSMKDDSWKDGCY [SLAIN2c]

binding result (BioGFP-SLAIN2): binds
B1: GST–CLIP-170-N (domain or fragment)
chain: MSMLKPSGLKAPTKILKPGSTALKTPAAAAAPLEKTVPSEKASGPPSSETQEEFVDDFRVGERVWVNGNKPGFIQFLGETQFAPGQWAGIVLDEPIGKNDGSVAGVRYFQCEPLKGIFTRPSKLTRKVQAEDEANGLQTAHARAASPLSTAAATMVSSSPATPSNIPQKPSQPVAKETSATPQISNLTKTASESISNLSEAGSVKKGERELKIGDRVLVGGTKAGVVRFLGETDFAKGEWCGVELDEPLGKNDGAVAGTRYFQCQPKYGLFAPVHKVTKIGFPSTTPAKAKAAAVRRVMATTPASLKRSP

B2: SLAIN2 N-terminal fragment (residues 1–43) (domain or fragment)
chain: not shown
stoichiometry N (SEC-MALS): 2
